Reference: patent publication US20210292426A1 (Hoffmann-La Roche, published 2021)
Blank lines part the entries; values can stand above or below the binder they belong to.

Experiments:
[1] = molecular target: T1, human fibroblast activation protein (huFAP) expressed on cells (human, UniProt Q12884 1-760); test: flow cytometry competition on huFAP-transfected HEK cells; unlabelled antibody titrated 0.2-60 µg/ml, then AF647-labelled 4B9 (20 µg/ml) as competitor
T1 construct: UniProt Q12884 printed; also called human FAP; hFAP
Method: Briefly, the target cells were harvested with Cell Dissociation buffer, washed with FACS Buffer (PBS+2% FCS+5 mM EDTA+0.25% sodium acide) and seeded into 96-U bottom plates (1×10^5 cells/well).

[2] = molecular target: T2, biotinylated recombinant human FAP (human, UniProt Q12884 27-760, biotinylated (site not stated)); test: SPR (Biacore), biotinylated huFAP immobilized, Fab analyte
T2 construct: also called biotinylated human FAP; recombinant huFAP

[3] = molecular target: T2, biotinylated recombinant human FAP; test: SPR (Biacore), Fab
[4] = molecular target: T1, human fibroblast activation protein …; test: flow cytometry, NIH/3T3-huFAP cells
Method: (§1) Plates were centrifuged 5 minutes at 1700 rpm and supernatants were flicked off. […] Afterwards the cells were washed three times with 200 μL 4° C. cold FACS buffer. […] Data analysis was performed using the FlowJo version 10 software (FlowJo LLC).

[5] = molecular target: T3, human CD40 expressed on cells (human, UniProt P25942 21-277); test: flow cytometry, primary human B cells
T3 construct: Endogenous CD40 on Raji, Daudi and primary human B cells; human CD40 on DCs of huCD40tg mice; also called huCD40; Raji cells
Method: as §1

binding result [1]: binds
B1: anti-FAP antibody 28H1 (antibody, V domains shown)
VH: EVQLLESGGGLVQPGGSLRLSCAASGFTFSSHAMSWVRQAPGKGLEWVSAIWASGEQYYADSVKGRFTISRDNSKNTLYLQMNSLRAEDTAVYYCAKGWLGNFDYWGQGTLVTVSS
VL: EIVLTQSPGTLSLSPGERATLSCRASQSVSRSYLAWYQQKPGQAPRLLIIGASTRATGIPDRFSGSGSGTDFTLTISRLEPEDFAVYYCQQGQVIPPTFGQGTKVEIK
notes: also called FAP clone 28H1; FAP (28H1)

Kd [2]: 0.43 nM
koff [2]: 0.00078 s⁻¹
kon [2]: 1.82e+06 M⁻¹ s⁻¹
Kd [3]: 0.279 nM
T ½ [3]: 0.917 h
koff [3]: 0.000208 s⁻¹
kon [3]: 747000 M⁻¹ s⁻¹
B2: 4B9_Fab (Fab, V domains shown)
VH: EVQLLESGGGLVQPGGSLRLSCAASGFTFSSYAMSWVRQAPGKGLEWVSAIIGSGASTYYADSVKGRFTISRDNSKNTLYLQMNSLRAEDTAVYYCAKGWFGGFNYWGQGTLVTVSS
VL: EIVLTQSPGTLSLSPGERATLSCRASQSVTSSYLAWYQQKPGQAPRLLINVGSRRATGIPDRFSGSGSGTDFTLTISRLEPEDFAVYYCQQGIMLPPTFGQGTKVEIK
notes: Fab

T ½ [3]: 4.57 h
B4: P1AE1689_Fab (humanized clone 212, VH1G1a/VL1G1a) (Fab, V domains shown)
VH: QVQLVQSGAEVKKPGASVKVSCKASGYTLTDYNMDWVRQAPGQGLEWIGDIYPNTGGTIYNQKFKGRVTMTIDTSTSTVYMELSSLRSEDTAVYYCTRFRGIHYAMDYWGQGTTVTVSS
VL: EIVLTQSPATLSLSPGERATLSCRASESVDNYGLSFINWFQQKPGQAPRLLIYGTSNRGSGIPARFSGSGSGTDFTLTISSLEPEDFAVYFCQQSNEVPYTFGGGTKVEIK
notes: Fab

T ½ [3]: 2.68 h
B5: P1AE1693_Fab (humanized clone 212, VH1G2a/VL1G2a) (Fab, V domains shown)
VH: QVQLVQSGAEVKKPGASVKVSCKASGYTLTDYNMDWVRQAPGKSLEWIGDIYPNTGGTIYNQKFKGRVTMTIDKSTSTVYMELSSLRSEDTAVYYCTRFRGIHYAMDYWGQGTTVTVSS
VL: EIVLTQSPATLSLSPGERATLSCRASESVDNYGLSFINWFQQKPGQPPRLLIYGTSNRGSGIPARFSGSGSGTDFTLTISSLEPEDFAVYFCQQSNEVPYTFGGGTKVEIK
notes: Fab

EC50 [4]: 3.7 nM
B7: P1AE2487, CD40 (P1AE0817) x FAP (4B9) (2+1) C-terminal crossfab fusion (bispecific antibody)
chain 1: EIVLTQSPGTLSLSPGERATLSCRASQSVTSSYLAWYQQKPGQAPRLLINVGSRRATGIPDRFSGSGSGTDFTLTISRLEPEDFAVYYCQQGIMLPPTFGQGTKVEIKSSASTKGPSVFPLAPSSKSTSGGTAALGCLVKDYFPEPVTVSWNSGALTSGVHTFPAVLQSSGLYSLSSVVTVPSSSLGTQTYICNVNHKPSNTKVDKKVEPKSC
chain 2: DIVMTQTPLSLSVTPGQPASISCRSSQSLVHSNGNTFLHWYLQKPGQSPQLLIYTVSNRFSGVPDRFSGSGSGTDFTLKISRVEAEDVGVYFCSQTTHVPWTFGGGTKVEIKRTVAAPSVFIFPPSDEQLKSGTASVVCLLNNFYPREAKVQWKVDNALQSGNSQESVTEQDSKDSTYSLSSTLTLSKADYEKHKVYACEVTHQGLSSPVTKSFNRGEC
chain 3: not shown
chain 4: QVQLVQSGAEVKKPGASVKVSCKASGYSFTGYYIHWVRQAPGQSLEWMGRVIPNAGGTSYNQKFKGRVTLTVDKSISTAYMELSRLRSDDTAVYYCAREGIYWWGQGTTVTVSSASTKGPSVFPLAPSSKSTSGGTAALGCLVKDYFPEPVTVSWNSGALTSGVHTFPAVLQSSGLYSLSSVVTVPSSSLGTQTYICNVNHKPSNTKVDKKVEPKSCDKTHTCPPCPAPEAAGGPSVFLFPPKPKDTLMISRTPEVTCVVVDVSHEDPEVKFNWYVDGVEVHNAKTKPREEQYNSTYRVVSVLTVLHQDWLNGKEYKCKVSNKALGAPIEKTISKAKGQPREPQVCTLPPSRDELTKNQVSLSCAVKGFYPSDIAVEWESNGQPENNYKTTPPVLDSDGSFFLVSKLTVDKSRWQQGNVFSCSVMHEALHNHYTQKSLSLSPG

Continued, binder first:

B3: P1AE1690_Fab (humanized clone 212, VH1G2a/VL1G1a) (Fab, V domains shown)
VH: QVQLVQSGAEVKKPGASVKVSCKASGYTLTDYNMDWVRQAPGKSLEWIGDIYPNTGGTIYNQKFKGRVTMTIDKSTSTVYMELSSLRSEDTAVYYCTRFRGIHYAMDYWGQGTTVTVSS
VL: EIVLTQSPATLSLSPGERATLSCRASESVDNYGLSFINWFQQKPGQAPRLLIYGTSNRGSGIPARFSGSGSGTDFTLTISSLEPEDFAVYFCQQSNEVPYTFGGGTKVEIK
notes: Fab
T ½ [3]: 3.05 h

B6: P1AE1702_Fab (humanized clone 212, VH2G2a/VL2G2a) (Fab, V domains shown)
VH: EVQLLESGGGLVQPGGSLRLSCAASGYTLTDYNMDWVRQAPGKGLEWVGDIYPNTGGTIYNQKFKGRFTISIDKSKNTAYLQMNSLRAEDTAVYYCTRFRGIHYAMDYWGQGTTVTVSS
VL: DIQMTQSPSSLSASVGDRVTITCRASESVDNYGLSFINWFQQKPGQPPKLLIYGTSNRGSGVPSRFSGSGSGTDFTLTISSLQPEDFAMYFCQQSNEVPYTFGGGTKVEIK
notes: Fab
T ½ [3]: 1.8 h

B8: P1AE3377, CD40 (P1AE0817) x FAP (P1AE1689) (3+1) C-terminal crossfab fusion (bispecific antibody, human IgG1, kappa, L234A L235A)
light 1: QVQLVQSGAEVKKPGASVKVSCKASGYTLTDYNMDWVRQAPGQGLEWIGDIYPNTGGTIYNQKFKGRVTMTIDTSTSTVYMELSSLRSEDTAVYYCTRFRGIHYAMDYWGQGTTVTVSSASVAAPSVFIFPPSDEQLKSGTASVVCLLNNFYPREAKVQWKVDNALQSGNSQESVTEQDSKDSTYSLSSTLTLSKADYEKHKVYACEVTHQGLSSPVTKSFNRGEC
light 2: DIVMTQTPLSLSVTPGQPASISCRSSQSLVHSNGNTFLHWYLQKPGQSPQLLIYTVSNRFSGVPDRFSGSGSGTDFTLKISRVEAEDVGVYFCSQTTHVPWTFGGGTKVEIKRTVAAPSVFIFPPSDRKLKSGTASVVCLLNNFYPREAKVQWKVDNALQSGNSQESVTEQDSKDSTYSLSSTLTLSKADYEKHKVYACEVTHQGLSSPVTKSFNRGEC
heavy 1: not shown
heavy 2: QVQLVQSGAEVKKPGASVKVSCKASGYSFTGYYIHWVRQAPGQSLEWMGRVIPNAGGTSYNQKFKGRVTLTVDKSISTAYMELSRLRSDDTAVYYCAREGIYWWGQGTTVTVSSASTKGPSVFPLAPSSKSTSGGTAALGCLVEDYFPEPVTVSWNSGALTSGVHTFPAVLQSSGLYSLSSVVTVPSSSLGTQTYICNVNHKPSNTKVDEKVEPKSCDGGGGSGGGGSQVQLVQSGAEVKKPGASVKVSCKASGYSFTGYYIHWVRQAPGQSLEWMGRVIPNAGGTSYNQKFKGRVTLTVDKSISTAYMELSRLRSDDTAVYYCAREGIYWWGQGTTVTVSSASTKGPSVFPLAPSSKSTSGGTAALGCLVEDYFPEPVTVSWNSGALTSGVHTFPAVLQSSGLYSLSSVVTVPSSSLGTQTYICNVNHKPSNTKVDEKVEPKSCDKTHTCPPCPAPEAAGGPSVFLFPPKPKDTLMISRTPEVTCVVVDVSHEDPEVKFNWYVDGVEVHNAKTKPREEQYNSTYRVVSVLTVLHQDWLNGKEYKCKVSNKALGAPIEKTISKAKGQPREPQVCTLPPSRDELTKNQVSLSCAVKGFYPSDIAVEWESNGQPENNYKTTPPVLDSDGSFFLVSKLTVDKSRWQQGNVFSCSVMHEALHNHYTQKSLSLSPG
notes: Trivalent for CD40, monovalent for FAP; knob-into-hole, P329G LALA Fc; also called CD40 x FAP (212) 3+1 crossfab
EC50 [5]: 0.038 nM
EC50 [4]: 4.94 nM

B9: P1AE3378, CD40 (P1AE0817) x FAP (4B9) (3+1) with C-terminal crossfab fusion (bispecific antibody)
chain 1: EIVLTQSPGTLSLSPGERATLSCRASQSVTSSYLAWYQQKPGQAPRLLINVGSRRATGIPDRFSGSGSGTDFTLTISRLEPEDFAVYYCQQGIMLPPTFGQGTKVEIKSSASTKGPSVFPLAPSSKSTSGGTAALGCLVKDYFPEPVTVSWNSGALTSGVHTFPAVLQSSGLYSLSSVVTVPSSSLGTQTYICNVNHKPSNTKVDKKVEPKSC
chain 2: DIVMTQTPLSLSVTPGQPASISCRSSQSLVHSNGNTFLHWYLQKPGQSPQLLIYTVSNRFSGVPDRFSGSGSGTDFTLKISRVEAEDVGVYFCSQTTHVPWTFGGGTKVEIKRTVAAPSVFIFPPSDEQLKSGTASVVCLLNNFYPREAKVQWKVDNALQSGNSQESVTEQDSKDSTYSLSSTLTLSKADYEKHKVYACEVTHQGLSSPVTKSFNRGEC
chain 3: not shown
chain 4: QVQLVQSGAEVKKPGASVKVSCKASGYSFTGYYIHWVRQAPGQSLEWMGRVIPNAGGTSYNQKFKGRVTLTVDKSISTAYMELSRLRSDDTAVYYCAREGIYWWGQGTTVTVSSASTKGPSVFPLAPSSKSTSGGTAALGCLVKDYFPEPVTVSWNSGALTSGVHTFPAVLQSSGLYSLSSVVTVPSSSLGTQTYICNVNHKPSNTKVDKKVEPKSCDGGGGSGGGGSQVQLVQSGAEVKKPGASVKVSCKASGYSFTGYYIHWVRQAPGQSLEWMGRVIPNAGGTSYNQKFKGRVTLTVDKSISTAYMELSRLRSDDTAVYYCAREGIYWWGQGTTVTVSSASTKGPSVFPLAPSSKSTSGGTAALGCLVKDYFPEPVTVSWNSGALTSGVHTFPAVLQSSGLYSLSSVVTVPSSSLGTQTYICNVNHKPSNTKVDKKVEPKSCDKTHTCPPCPAPEAAGGPSVFLFPPKPKDTLMISRTPEVTCVVVDVSHEDPEVKFNWYVDGVEVHNAKTKPREEQYNSTYRVVSVLTVLHQDWLNGKEYKCKVSNKALGAPIEKTISKAKGQPREPQVCTLPPSRDELTKNQVSLSCAVKGFYPSDIAVEWESNGQPENNYKTTPPVLDSDGSFFLVSKLTVDKSRWQQGNVFSCSVMHEALHNHYTQKSLSLSPG
EC50 [5]: 0.085 nM
EC50 [4]: 5.53 nM
